Results from article PMC3873296, “Crystal Structures and Molecular Dynamics Simulations of Thermophilic Malate Dehydrogenase Reveal Critical Loop Motion for Co-Substrate Binding” (PLoS ONE, 2013).

How the values were obtained:
[1] = molecular target: T1, TtMDH (malate dehydrogenase from Thermus thermophilus) (Thermus thermophilus, UniProt P10584); test: isothermal titration calorimetry; type: binding
T1 construct: gene mdh
T1 sequence (P10584 1-327): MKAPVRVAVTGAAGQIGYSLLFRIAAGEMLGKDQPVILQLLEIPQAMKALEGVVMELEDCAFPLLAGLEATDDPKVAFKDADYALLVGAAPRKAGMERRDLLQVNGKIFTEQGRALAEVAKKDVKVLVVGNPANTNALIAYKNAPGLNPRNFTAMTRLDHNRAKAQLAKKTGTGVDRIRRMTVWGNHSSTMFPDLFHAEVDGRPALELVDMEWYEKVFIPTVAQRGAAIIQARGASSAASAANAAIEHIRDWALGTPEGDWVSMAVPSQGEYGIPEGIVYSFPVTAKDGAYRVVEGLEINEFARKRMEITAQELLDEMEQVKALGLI
From the text: isothermal titration calorimetry on TtMDH (malate dehydrogenase from Thermus thermophilus)

[2] = molecular target: T1, TtMDH (malate dehydrogenase from Thermus thermophilus); test: X-ray crystal structure, […] Å; type: binding; conditions: apo crystal soaked with 2 mM NAD for about 30 min
purified protein = substrate: O=C(O)CC(=O)C(=O)O; test: purified protein; type: biochemical, Thermus thermophilus; conditions: 0.15 mM NADH, 100 mM glycine-NaOH pH 10.0, 37 °C
[3] = molecular target: the molecule itself; test: SEC; analytical gel filtration on Superdex 200 HR; 0.1 ml TtMDH at 8.8 mg/ml; elution compared with high-molecular-weight standards; estimated mass 61 kDa against 37 kDa for the subunit

## NC(=O)C1=CN([C@@H]2O[C@H](COP(=O)(O)OP(=O)(O)OC[C@H]3O[C@@H](n4cnc5c(N)ncnc54)[C@H](O)[C@@H]3O)[C@@H](O)[C@H]2O)C=CC1 [NADH]
[1]
  Kd: 1160 nM

## NC(=O)c1ccc[n+]([C@@H]2O[C@H](COP(=O)(O)OP(=O)(O)OC[C@H]3O[C@@H](n4cnc5c(N)ncnc54)[C@H](O)[C@@H]3O)[C@@H](O)[C@H]2O)c1 [NAD]
[2]
  X-ray crystal structure, 2.36 Å: co-substrate binding site of TtMDH that could be modeled as NAD

B1: Malate dehydrogenase from Thermus thermophilus (enzyme, UniProt P61977 1-327, looked up)
chain: T1 sequence (P10584 1-327)
notes: Malate dehydrogenase (EC 1.1.1.37) of Thermus thermophilus; calculated mass of the recombinant protein 36874.48 Da; also called TtMDH; MDH; source: E. coli BL21(DE3), purified (heat incubation at 70°C, Ni2+-NTA, Superdex 200 HR gel filtration)
Purified protein
  Km: 168.1 µM
  kcat: 281.6 s⁻¹
[3]
  stoichiometry N: 2
